Experimental findings from patent publication US8227408B2, “Leptin as an anti-amyloidogenic biologic and methods for delaying the onset and reducing Alzheimer's disease-like pathology” (Neurotez, Inc., priority 2005, dated 2012) are described below.

This test has as its system SY5Y cells. Kind of test: Aβ production by SY5Y cells. Type of test: cell-based, human. The following applies: total Aβ in conditioned media, 5 h; concentration (TOFA 200 μM, cerulenin 200 μM, etomoxir 40 μM, peptide YY (3-36) 25 μM, CNTF 25 μM, leptin 400 ng/ml); mean ± SEM; NS = non-significant. The text has this:
Cell cultures, Treatments, Antibodies and Immunoassays. SY5Y cells (human neuroblastoma) were maintained in culture as described (Johnsingh et al., FEBS Lett. 465:53-8 (2000)). Primary neural cultures were obtained from ε16 rat embryonic cortex, as described (Shimoda et al., 1992. Brain Res. 586:319-31 (1992)). These were either grown as mixed cultures (Johnsingh et al., FEBS Lett. 465:53-8 (2000)) or grown under conditions that favor the isolation and proliferation of astrocytes (Takeshima et al., J Neurosci. 14:4769-79 (1994)).
SY5Y and hyg-sa134-Neuro2a cells were treated at 80% confluency (see below). Primary neural cultures from mouse embryos were allowed to grow for 6-12 days following plating and prior to viral infection and treatments.
About 100 ng/ml or about 400 ng/ml leptin (Harbor-UCLA, CA), was added in cell culture medium for 2 or 5 h. Cells were approximately 80% confluent at the time of treatment. Peptide YY (3-36) (Phoenix Pharmaceuticals, Inc., CA), and CNTF (Sigma-Aldrich, Mo.) were added at about 25 μM or 150 μM for the same incubation periods. TOFA, etomoxir (Research Biochemicals International, MA) and cerulenin (Sigma-Aldrich, Mo.) were used as described below.
For the determination of Aβ peptide several methodologies also were used. SY5Y cells in culture were metabolically labeled with ^35S-[Met] as described (Figueiredo-Pereira et al. J Neurochem. 72:1417-22 (1999)), followed by immunoprecipitation, resolution of the immunoprecipitates on SDS-PAGE, autoradiography, and densitometric analysis of the autoradiogram. Neuro2a cells were stably transfected with hyg-sa134 (K. Sambamurti, S. Carolina Medical Center, SC) and Aβ40 (SEQ ID NO: 4) plus Aβ42 (SEQ ID NO: 5) plus Aβ43 (SEQ ID NO: 6) (Total Aβ) in the medium then was quantified by sandwich ELISAs developed with 4G8 and 6 ε10 monoclonal antibodies (Signet, Mass.) as described (Figueiredo-Pereira et al., J Neurochem. 72:1417-22 (1999)). Commercially available ELISA kits (KMI Diagnostics, MN) were used for the separate determination of Aβ40 (SEQ ID NO:4) and Aβ42/43 (SEQ ID NO:5/SEQ ID NO:6) in formic acid extracts of mice brains. Flotillin was detected using monoclonal anti-flotillin-1 antibodies (BD Biosciences, CA). Actin was detected using monoclonal anti-actin antibodies (Research Diagnostics, Inc, NJ).
Human (SYSY) or mouse neuroblastoma cell-lines (Neuro2a) commonly are used to study amyloid β metabolism in vitro. Neuro2a cells are stably transfected with hyg-sa134 (SEQ ID NO: 11), a plasmid driving the expression of a recombinant fusion protein containing the human C-terminal fragment of APP of about 134 amino acids, CAPP134 (SEQ ID NO: 10). Here, 5Y5Y or Neuro2a cultures were treated for 2 or 5 h with about 100 ng/ml or about 400 ng/ml leptin (FIG. 4a, 4b). Similarly, primary neurons from embryonic rat brain, infected with an adenovirus to direct the expression of CAPP134 (SEQ ID NO:10) also were treated according to the same regimen.

B1: Leptin: peptide hormone controlling adaptive metabolic mechanisms to energy availability; leptin (Harbor-UCLA) in vitro, recombinant murine leptin in mice (protein, UniProt P41160 22-167, looked up)
Leptin: VPIQKVQDDTKTLIKTIVTRINDISHTQSVSAKQRVTGLDFIPGLHPILSLSKMDQTLAVYQQVLTSLPSQNVLQIANDLENLRDLLHLLAFSKSCSLPQTSGLQKPESLDGVLEASLYSTEVVALSRLQGSLQDILQQLDVSPEC
On to B1, for which the “SY5Y Aβ (% control)” value is 38 ± 7 % control.
